Test results: US7794710

Biological target: human B7-H1 (hB7-H1) on the cell surface (human) (UniProt Q9NZQ7)
Assay: cell-based or functional assay

Sequence of UniProt Q9NZQ7 (Q9NZQ7 19-290 limits assumed): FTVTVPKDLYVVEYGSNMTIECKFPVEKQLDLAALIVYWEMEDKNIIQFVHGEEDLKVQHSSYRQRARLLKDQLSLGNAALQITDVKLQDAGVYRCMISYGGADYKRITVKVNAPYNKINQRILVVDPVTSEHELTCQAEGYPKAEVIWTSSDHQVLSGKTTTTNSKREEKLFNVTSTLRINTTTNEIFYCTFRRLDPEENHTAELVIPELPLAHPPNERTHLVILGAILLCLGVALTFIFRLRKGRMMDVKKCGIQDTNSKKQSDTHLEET

- inhibition of apoptosis of M15 CTL cultured with B7-H1/624mel cells: > 50%
Substance: 5H1 mAb specific for hB7-H1 (antibody)
